Data as given in the supplement of paper PMC5998384.

System: HeLa Kyoto
Assay: melting temperature (median over replicates), in situ; higher = more thermally stable
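Also: HeLa Kyoto cells synchronized by double thymidine or nocodazole block, proteins quantified by TMT10plex mass spectrometry, three independent biological replicates.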

Sequence	melting temperature (cell cycle stage: mitosis)	melting temperature (cell cycle stage: G1/S)
MKKTPVFLESLVTNMLRLRAICPFSWRVFQFRPISCEPLIIQMNKCTDEEQMFGFIERNKAILSEKQVGCAFDMLWKLQKQKTSLLKNAEYVRDHPQFLTLHNLATNKFKLMNDDTLVNVLYVTQQFAGEAHDPLVEALVTEAWRRLERFDIKLLSEFSSCLADQHLYFSPLMGKIADIVHRNLETTQDLSSLSVLMVNISSLISRHFQQQLVNKTELLFDTIDSSEVNVAKSIAKFLRNVRYRYQPLLERCNNVFLSNVDHLDLDSISKILSVYKFLQFNSFEFIIMAKKKLTEMIPLCNHPASFVKLFVALGPIAGPEEKKQLKSTMLLMSEDLTGEQALAVLGAMGDMESRNSCLIKRVTSVLHKHLDGYKPLELLKITQELTFLHFQRKEFFAKLRELLLSYLKNSFIPTEVSVLVRAISLLPSPHLDEVGISRIEAVLPQCDLNNLSSFATSVLRWIQHDHMYLDNMTAKQLKLLQKLDHYGRQRLQHSNSLDLLRKELKSLKGNTFPESLLEEMIATLQHFMDDINYINVGEIASFISSTDYLSTLLLDRIASVAVQQIEKIHPFTIPAIIRPFSVLNYDPPQRDEFLGTCVQHLNSYLGILDPFILVFLGFSLATLEYFPEDLLKAIFNIKFLARLDSQLEILSPSRSARVQFHLMELNRSVCLECPEFQIPWFHDRFCQQYNKGIGGMDGTQQQIFKMLAEVLGGINCVKASVLTPYYHKVDFECILDKRKKPLPYGSHNIALGQLPEMPWESNIEIVGSRLPPGAERIALEFLDSKALCRNIPHMKGKSAMKKRHLEILGYRVIQISQFEWNSMALSTKDARMDYLRECIFGEVKSCL [FASTKD1]	49.9 °C	
MKPNFSLRLRIFNLNCWGIPYLSKHRADRMRRLGDFLNQESFDLALLEEVWSEQDFQYLRQKLSPTYPAAHHFRSGIIGSGLCVFSKHPIQELTQHIYTLNGYPYMIHHGDWFSGKAVGLLVLHLSGMVLNAYVTHLHAEYNRQKDIYLAHRVAQAWELAQFIHHTSKKADVVLLCGDLNMHPEDLGCCLLKEWTGLHDAYLETRDFKGSEEGNTMVPKNCYVSQQELKPFPFGVRIDYVLYKAVSGFYISCKSFETTTGFDPHRGTPLSDHEALMATLFVRHSPPQQNPSSTHGPAERSPLMCVLKEAWTELGLGMAQARWWATFASYVIGLGLLLLALLCVLAAGGGAGEAAILLWTPSVGLVLWAGAFYLFHVQEVNGLYRAQAELQHVLGRAREAQDLGPEPQPALLLGQQEGDRTKEQ [SMPD2]	55.7 °C	
MLILTKTAGVFFKPSKRKVYEFLRSFNFHPGTLFLHKIVLGIETSCDDTAAAVVDETGNVLGEAIHSQTEVHLKTGGIVPPAAQQLHRENIQRIVQEALSASGVSPSDLSAIATTIKPGLALSLGVGLSFSLQLVGQLKKPFIPIHHMEAHALTIRLTNKVEFPFLVLLISGGHCLLALVQGVSDFLLLGKSLDIAPGDMLDKVARRLSLIKHPECSTMSGGKAIEHLAKQGNRFHFDIKPPLHHAKNCDFSFTGLQHVTDKIIMKKEKEEGIEKGQILSSAADIAATVQHTMACHLVKRTHRAILFCKQRDLLPQNNAVLVASGGVASNFYIRRALEILTNATQCTLLCPPPRLCTDNGIMIAWNGIERLRAGLGILHDIEGIRYEPKCPLGVDISKEVGEASIKVPQLKMEI [OSGEPL1]	51.1 °C	53.6 °C
MLQQDSNDDTEDVSLFDAEEETTNRPRKAKIRHPVASFFHLFFRVSAIIVCLLCELLSSSFITCMVTIILLLSCDFWAVKNVTGRLMVGLRWWNHIDEDGKSHWVFESRKESSQENKTVSEAESRIFWLGLIACSVLWVIFAFSALFSFTVKWLRRSRHIAQTGLKVLGSRDPPASAFQSAGITGVSRCPGHPSRKFHQVDINSFTRITDRALYWKPAPRLSSPPLRAAPGNCQQMAPARLFLSLRLWAWRGGGESPNSRGTGEPGPKFHLASGMH [TVP23C]	56 °C	
MNILPKKSWHVRNKDNVARVRRDEAQAREEEKERERRVLLAQQEARTEFLRKKARHQNSLPELEAAEAGAPGSGPVDLFRELLEEGKGVIRGNKEYKEEKRQEKERQEKALGILTYLGQSAAEAQTQPPWYQLPPGRGGPPPGPAPDEKIKSRLDPLREMQKHLGKKRQHGGDEGSRSRKEKEGSEKQRPKEPPSLDQLRAERLRREAAERSRAEALLARVQGRALQEGQPEEDETDDRRRRYNSQFNPQLARRPRQQDPHLTH [LENG1]	52.5 °C	
MPFRLLIPLGLLCALLPQHHGAPGPDGSAPDPAHYRERVKAMFYHAYDSYLENAFPFDELRPLTCDGHDTWGSFSLTLIDALDTLLILGNVSEFQRVVEVLQDSVDFDIDVNASVFETNIRVVGGLLSAHLLSKKAGVEVEAGWPCSGPLLRMAEEAARKLLPAFQTPTGMPYGTVNLLHGVNPGETPVTCTAGIGTFIVEFATLSSLTGDPVFEDVARVALMRLWESRSDIGLVGNHIDVLTGKWVAQDAGIGAGVDSYFEYLVKGAILLQDKKLMAMFLEYNKAIRNYTRFDDWYLWVQMYKGTVSMPVFQSLEAYWPGLQSLIGDIDNAMRTFLNYYTVWKQFGGLPEFYNIPQGYTVEKREGYPLRPELIESAMYLYRATGDPTLLELGRDAVESIEKISKVECGFATIKDLRDHKLDNRMESFFLAETVKYLYLLFDPTNFIHNNGSTFDAVITPYGECILGAGGYIFNTEAHPIDPAALHCCQRLKEEQWEVEDLMREFYSLKRSRSKFQKNTVSSGPWEPPARPGTLFSPENHDQARERKPAKQKVPLLSCPSQPFTSKLALLGQVFLDSS [EDEM2]		55.3 °C
MPSSLPGSQVPHPTLDAVDLVEKTLRNEGTSSSAPVLEEGDTDPWTLPQLKDTSQPWKELRVAGRLRRVAGSVLKACGLLGSLYFFICSLDVLSSAFQLLGSKVAGDIFKDNVVLSNPVAGLVIGVLVTALVQSSSTSSSIVVSMVAAKLLTVRVSVPIIMGVNVGTSITSTLVSMAQSGDRDEFQRAFSGSAVHGIFNWLTVLVLLPLESATALLERLSELALGAASLTPRAQAPDILKVLTKPLTHLIVQLDSDMIMSSATGNATNSSLIKHWCGTTGQPTQENSSCGAFGPCTEKNSTAPADRLPCRHLFAGTELTDLAVGCILLAGSLLVLCGCLVLIVKLLNSVLRGRVAQVVRTVINADFPFPLGWLGGYLAVLAGAGLTFALQSSSVFTAAVVPLMGVGVISLDRAYPLLLGSNIGTTTTALLAALASPADRMLSALQVALIHFFFNLAGILLWYLVPALRLPIPLARHFGVVTARYRWVAGVYLLLGFLLLPLAAFGLSLAGGMELAAVGGPLVGLVLLVILVTVLQRRRPAWLPVRLRSWAWLPVWLHSLEPWDRLVTRCCPCNVCSPPKATTKEAYCYENPEILASQQL [SLC34A3]	57.5 °C	
MQFMLLFSRQGKLRLQKWYVPLSDKEKKKITRELVQTVLARKPKMCSFLEWRDLKIVYKRYASLYFCCAIEDQDNELITLEIIHRYVELLDKYFGSVCELDIIFNFEKAYFILDEFLLGGEVQETSKKNVLKAIEQADLLQEEAETPRSVLEEIGLT [AP1S2]	49.7 °C	
